B1: YidH (natural protein, E. coli, UniProt P0ADM0 1-115, looked up)
chain: MKISRLGEAPDYRFSLANERTFLAWIRTALGFLAAGVGLDQLAPDFATPVIRELLALLLCLFSGGLAMYGYLRWLRNEKAMRLKEDLPYTNSLLIISLILMVVAVIVMGLVLYAG
B2: YgaP (natural protein, E. coli, UniProt P55734 1-174, looked up)
chain: MALTTISPHDAQELIARGAKLIDIRDADEYLREHIPEADLAPLSVLEQSGLPAKLRHEQIIFHCQAGKRTSNNADKLAAIAAPAEIFLLEDGIDGWKKAGLPVAVNKSQPLPLMRQVQIAAGGLILIGVVLGYTVNSGFFLLSGFVGAGLLFAGISGFCGMARLLDKMPWNQRA

Molecular target: the molecule itself
Assay: SEC + other: SDS-PAGE

Row | Protein | stoichiometry N
1 | B1 | 2
2 | B2 | 2

— paper PMC2705707 (Journal of Structural and Functional Genomics, 2009)
